One block for each binder: values may come before it. Bridges are numbered along the chain shown (N, C = ends). [ ]: non-standard residue; d: D form. Nle = CCCC[C@H](N)C(=O)O
Columns and labels:
Assay in all cases: cell-based or functional assay
[1] = target: Tryptase, from human lung (human, UniProt Q15661 31-275, limits assumed)
[2] = target: Urokinase from human urine (human, UniProt P00749 21-431, limits assumed)
[3] = target: T1, CathepsinG, from human neutrophils (human, UniProt P08311 21-244)
T1 sequence (looked up): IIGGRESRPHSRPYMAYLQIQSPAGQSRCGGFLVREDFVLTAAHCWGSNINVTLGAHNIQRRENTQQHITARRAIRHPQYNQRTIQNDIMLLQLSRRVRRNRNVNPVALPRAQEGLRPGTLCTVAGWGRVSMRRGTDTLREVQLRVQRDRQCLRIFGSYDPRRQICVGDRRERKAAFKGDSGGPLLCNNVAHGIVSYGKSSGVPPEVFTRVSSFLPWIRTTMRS

[4] = target: Trypsin, Iodination grade, from human pancreas (human, UniProt P07477 24-247)
[5] = target: T2, Chymase, from human skin (human, UniProt P23946 22-247)
T2 sequence (looked up): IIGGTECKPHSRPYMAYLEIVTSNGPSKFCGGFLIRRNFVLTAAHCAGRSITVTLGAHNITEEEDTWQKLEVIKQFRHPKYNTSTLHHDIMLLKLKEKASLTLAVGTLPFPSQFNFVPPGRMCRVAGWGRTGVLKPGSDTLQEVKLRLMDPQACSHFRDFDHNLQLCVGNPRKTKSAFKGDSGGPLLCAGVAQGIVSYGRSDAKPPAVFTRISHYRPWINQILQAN

[6] = target: T3, Elastase from human neutrophils (human, UniProt P08246 30-247, limits assumed)
T3 sequence (looked up): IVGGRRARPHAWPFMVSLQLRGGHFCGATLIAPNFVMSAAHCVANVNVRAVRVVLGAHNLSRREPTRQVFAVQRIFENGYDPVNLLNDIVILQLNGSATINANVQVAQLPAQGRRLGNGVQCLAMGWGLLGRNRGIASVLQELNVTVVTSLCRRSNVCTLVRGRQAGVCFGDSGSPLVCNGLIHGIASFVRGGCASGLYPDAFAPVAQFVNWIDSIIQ

[7] = target: Chymotrypsin, from human pancreas (human, UniProt P17538 19-263)
[8] = target: Thrombin, from Human Plasma, high activity (human, UniProt P00734 328-622)

Tryptase, from human lung, sequence (Q15661 31-275 limits assumed): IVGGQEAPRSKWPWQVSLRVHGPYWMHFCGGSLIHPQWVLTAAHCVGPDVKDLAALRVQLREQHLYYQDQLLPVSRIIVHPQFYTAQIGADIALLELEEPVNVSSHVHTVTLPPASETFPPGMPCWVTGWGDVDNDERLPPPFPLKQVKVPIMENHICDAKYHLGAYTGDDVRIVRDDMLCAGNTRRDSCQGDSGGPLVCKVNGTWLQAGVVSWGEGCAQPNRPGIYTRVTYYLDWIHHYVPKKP
Chymotrypsin, from human pancreas, sequence (P17538 19-263): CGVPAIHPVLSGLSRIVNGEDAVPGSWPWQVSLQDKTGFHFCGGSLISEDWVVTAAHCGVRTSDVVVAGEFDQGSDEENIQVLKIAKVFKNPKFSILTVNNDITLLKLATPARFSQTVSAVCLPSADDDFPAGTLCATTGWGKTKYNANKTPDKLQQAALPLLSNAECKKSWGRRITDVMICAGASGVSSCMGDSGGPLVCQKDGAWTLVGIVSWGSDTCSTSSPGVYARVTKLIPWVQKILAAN

B1: Example 36 (peptide)
peptide: XCTKSDPPICY
HELM: PEPTIDE1{[Cha].C.T.K.S.D.P.P.I.C.Y.[dP].P}$PEPTIDE1,PEPTIDE1,2:R3-10:R3|PEPTIDE1,PEPTIDE1,1:R1-13:R2$$$V2.0
SMILES: CC[C@H](C)[C@@H]1NC(=O)[C@@H]2CCCN2C(=O)[C@@H]2CCCN2C(=O)[C@H](CC(=O)O)NC(=O)[C@H](CO)NC(=O)[C@H](CCCCN)NC(=O)[C@H]([C@@H](C)O)NC(=O)[C@@H]2CSSC[C@H](NC1=O)C(=O)N[C@@H](Cc1ccc(O)cc1)C(=O)N1CCC[C@@H]1C(=O)N1CCC[C@H]1C(=O)N[C@@H](CC1CCCCC1)C(=O)N2
% inhibition at 100 µM [1]: 73.3% | % inhibition at 100 µM [2]: 0% | IC50 [3]: 41 nmol

B2: Example 37 (peptide)
peptide: XCTKSDPPICN
HELM: PEPTIDE1{[O=C([C@@H](N[*:1])C1CCCCC1)[*:2]].C.T.K.S.D.P.P.I.C.N.[dP].P}$PEPTIDE1,PEPTIDE1,2:R3-10:R3|PEPTIDE1,PEPTIDE1,1:R1-13:R2$$$V2.0
SMILES: CC[C@H](C)[C@@H]1NC(=O)[C@@H]2CCCN2C(=O)[C@@H]2CCCN2C(=O)[C@H](CC(=O)O)NC(=O)[C@H](CO)NC(=O)[C@H](CCCCN)NC(=O)[C@H]([C@@H](C)O)NC(=O)[C@@H]2CSSC[C@H](NC1=O)C(=O)N[C@@H](CC(N)=O)C(=O)N1CCC[C@@H]1C(=O)N1CCC[C@H]1C(=O)N[C@@H](C1CCCCC1)C(=O)N2
% inhibition at 100 µM [1]: 56% | % inhibition at 100 µM [2]: 5% | IC50 [3]: 35 nmol

B5: Example 16 (peptide)
peptide: FCTKSDPPXCS
HELM: PEPTIDE1{F.C.T.K.S.D.P.P.[Cha].C.S.[dP].P}$PEPTIDE1,PEPTIDE1,2:R3-10:R3|PEPTIDE1,PEPTIDE1,1:R1-13:R2$$$V2.0
SMILES: C[C@@H](O)[C@@H]1NC(=O)[C@@H]2CSSC[C@H](NC(=O)[C@H](CC3CCCCC3)NC(=O)[C@@H]3CCCN3C(=O)[C@@H]3CCCN3C(=O)[C@H](CC(=O)O)NC(=O)[C@H](CO)NC(=O)[C@H](CCCCN)NC1=O)C(=O)N[C@@H](CO)C(=O)N1CCC[C@@H]1C(=O)N1CCC[C@H]1C(=O)N[C@@H](Cc1ccccc1)C(=O)N2
% inhibition at 100 µM [2]: 3.2% | % inhibition at 100 µM [4]: 90% | % inhibition at 100 µM [5]: 12.9% | IC50 [6]: > 100000 nmol | IC50 [3]: 66 nmol

B6: Example 22 (peptide)
peptide: ICTXSDPPICR
HELM: PEPTIDE1{I.C.T.[Nle].S.D.P.P.I.C.R.[dP].P}$PEPTIDE1,PEPTIDE1,2:R3-10:R3|PEPTIDE1,PEPTIDE1,1:R1-13:R2$$$V2.0
SMILES: CCCC[C@@H]1NC(=O)[C@H]([C@@H](C)O)NC(=O)[C@@H]2CSSC[C@H](NC(=O)[C@H]([C@@H](C)CC)NC(=O)[C@@H]3CCCN3C(=O)[C@@H]3CCCN3C(=O)[C@H](CC(=O)O)NC(=O)[C@H](CO)NC1=O)C(=O)N[C@@H](CCCNC(=N)N)C(=O)N1CCC[C@@H]1C(=O)N1CCC[C@H]1C(=O)N[C@@H]([C@@H](C)CC)C(=O)N2
% inhibition at 100 µM [1]: 3.8% | % inhibition at 100 µM [2]: 5.7% | % inhibition at 100 µM [4]: 84% | % inhibition at 100 µM [5]: 98.8% | IC50 [6]: > 100000 nmol | IC50 [3]: 55 nmol | % inhibition at 100 µM [7]: 0%

B9: Example 17 (peptide)
peptide: ICTKSDPPQCR
HELM: PEPTIDE1{I.C.T.K.S.D.P.P.Q.C.R.[dP].P}$PEPTIDE1,PEPTIDE1,2:R3-10:R3|PEPTIDE1,PEPTIDE1,1:R1-13:R2$$$V2.0
SMILES: CC[C@H](C)[C@@H]1NC(=O)[C@@H]2CCCN2C(=O)[C@H]2CCCN2C(=O)[C@H](CCCNC(=N)N)NC(=O)[C@@H]2CSSC[C@H](NC1=O)C(=O)N[C@@H]([C@@H](C)O)C(=O)N[C@@H](CCCCN)C(=O)N[C@@H](CO)C(=O)N[C@@H](CC(=O)O)C(=O)N1CCC[C@H]1C(=O)N1CCC[C@H]1C(=O)N[C@@H](CCC(N)=O)C(=O)N2
% inhibition at 100 µM [1]: 90.4% | % inhibition at 100 µM [4]: 90% | % inhibition at 100 µM [5]: 27.6% | IC50 [6]: > 100000 nmol | % inhibition at 100 µM [8]: 0% | IC50 [3]: 55 nmol | % inhibition at 100 µM [7]: 16%

B10: Example 11 (peptide)
peptide: XCTKSDPPICS
HELM: PEPTIDE1{[O=C([C@@H](N[*:1])C1CCCCC1)[*:2]].C.T.K.S.D.P.P.I.C.S.[dP].P}$PEPTIDE1,PEPTIDE1,2:R3-10:R3|PEPTIDE1,PEPTIDE1,1:R1-13:R2$$$V2.0
SMILES: CC[C@H](C)[C@@H]1NC(=O)[C@@H]2CCCN2C(=O)[C@@H]2CCCN2C(=O)[C@H](CC(=O)O)NC(=O)[C@H](CO)NC(=O)[C@H](CCCCN)NC(=O)[C@H]([C@@H](C)O)NC(=O)[C@@H]2CSSC[C@H](NC1=O)C(=O)N[C@@H](CO)C(=O)N1CCC[C@@H]1C(=O)N1CCC[C@H]1C(=O)N[C@@H](C1CCCCC1)C(=O)N2
% inhibition at 100 µM [4]: 6.5% | % inhibition at 100 µM [5]: 12.1% | % inhibition at 100 µM [6]: 19% | IC50 [3]: 95 nmol | % inhibition at 100 µM [7]: 73.6%

Second part, the binder after the results:

% inhibition at 100 µM [1]: 90.4% | % inhibition at 100 µM [4]: 90% | % inhibition at 100 µM [5]: 27.6% | IC50 [6]: > 100000 nmol | IC50 [3]: 55 nmol | % inhibition at 100 µM [7]: 16%
B3: Example 55 (peptide)
peptide: ICTKSDPPQCR
HELM: PEPTIDE1{I.C.T.K.S.D.P.P.Q.C.R.[dP].P}$PEPTIDE1,PEPTIDE1,2:R3-10:R3|PEPTIDE1,PEPTIDE1,1:R1-13:R2$$$V2.0
SMILES: CC[C@H](C)[C@@H]1NC(=O)[C@@H]2CCCN2C(=O)[C@H]2CCCN2C(=O)[C@H](CCCNC(=N)N)NC(=O)[C@@H]2CSSC[C@H](NC1=O)C(=O)N[C@@H]([C@@H](C)O)C(=O)N[C@@H](CCCCN)C(=O)N[C@@H](CO)C(=O)N[C@@H](CC(=O)O)C(=O)N1CCC[C@H]1C(=O)N1CCC[C@H]1C(=O)N[C@@H](CCC(N)=O)C(=O)N2

% inhibition at 100 µM [1]: 57% | % inhibition at 100 µM [2]: 1% | IC50 [3]: 47 nmol
B4: Example 65 (peptide)
peptide: XCTKSDPPYCY
HELM: PEPTIDE1{[O=C([C@@H](N[*:1])C1CCCCC1)[*:2]].C.T.K.S.D.P.P.Y.C.Y.[dP].P}$PEPTIDE1,PEPTIDE1,2:R3-10:R3|PEPTIDE1,PEPTIDE1,1:R1-13:R2$$$V2.0
SMILES: C[C@@H](O)[C@@H]1NC(=O)[C@@H]2CSSC[C@H](NC(=O)[C@H](Cc3ccc(O)cc3)NC(=O)[C@@H]3CCCN3C(=O)[C@@H]3CCCN3C(=O)[C@H](CC(=O)O)NC(=O)[C@H](CO)NC(=O)[C@H](CCCCN)NC1=O)C(=O)N[C@@H](Cc1ccc(O)cc1)C(=O)N1CCC[C@@H]1C(=O)N1CCC[C@H]1C(=O)N[C@@H](C1CCCCC1)C(=O)N2

% inhibition at 100 µM [2]: 3.2% | % inhibition at 100 µM [4]: 90% | % inhibition at 100 µM [5]: 12.9% | IC50 [6]: > 100000 nmol | IC50 [3]: 66 nmol
B7: Example 54 (peptide)
peptide: FCTKSDPPXCS
HELM: PEPTIDE1{F.C.T.K.S.D.P.P.[Cha].C.S.[dP].P}$PEPTIDE1,PEPTIDE1,2:R3-10:R3|PEPTIDE1,PEPTIDE1,1:R1-13:R2$$$V2.0
SMILES: C[C@@H](O)[C@@H]1NC(=O)[C@@H]2CSSC[C@H](NC(=O)[C@H](CC3CCCCC3)NC(=O)[C@@H]3CCCN3C(=O)[C@@H]3CCCN3C(=O)[C@H](CC(=O)O)NC(=O)[C@H](CO)NC(=O)[C@H](CCCCN)NC1=O)C(=O)N[C@@H](CO)C(=O)N1CCC[C@@H]1C(=O)N1CCC[C@H]1C(=O)N[C@@H](Cc1ccccc1)C(=O)N2

% inhibition at 100 µM [1]: 0% | % inhibition at 100 µM [2]: 7% | IC50 [3]: 46 nmol
Binder: cyclo([Nle]CTKSDPPICT[dP]P) (disulfide 2-10) [Example 42]

% inhibition at 100 µM [1]: 3.8% | % inhibition at 100 µM [2]: 5.7% | % inhibition at 100 µM [4]: 84% | % inhibition at 100 µM [5]: 98.8% | IC50 [6]: > 100000 nmol | IC50 [3]: 55 nmol | % inhibition at 100 µM [7]: 0%
B8: Example 59 (peptide)
peptide: ICTXSDPPICR
HELM: PEPTIDE1{I.C.T.[Nle].S.D.P.P.I.C.R.[dP].P}$PEPTIDE1,PEPTIDE1,2:R3-10:R3|PEPTIDE1,PEPTIDE1,1:R1-13:R2$$$V2.0
SMILES: CCCC[C@@H]1NC(=O)[C@H]([C@@H](C)O)NC(=O)[C@@H]2CSSC[C@H](NC(=O)[C@H]([C@@H](C)CC)NC(=O)[C@@H]3CCCN3C(=O)[C@@H]3CCCN3C(=O)[C@H](CC(=O)O)NC(=O)[C@H](CO)NC1=O)C(=O)N[C@@H](CCCNC(=N)N)C(=O)N1CCC[C@@H]1C(=O)N1CCC[C@H]1C(=O)N[C@@H]([C@@H](C)CC)C(=O)N2

Reference: patent publication US20140213531A1 (POLYPHOR, published 2014)
